The numbers were not newly measured in PMC7101603, which cites them from elsewhere.

For this series, the target named is Activin-A mature (Homo sapiens) (UniProt P08476).

Turning to “Activin βA pro-peptide pro-peptide (from UniProt P08476)”, the Kd is 100 nM.
